3 molecules from patent publication US20180312587A1 (ADURO BIOTECH HOLDINGS EUROPE B V, published 2018) can be followed below.

For assay [1], the target named is T1, human SIRPβ1 (human, UniProt O00241 30-398).
T1 construct: also called hSIRPβ1
As to the kind of experiment: CELISA, CHO-K1 transfectants. Here is the method:
Reactivity was confirmed using CHO-K1 cells (ATCC CCL-61) that had been transiently transfected, using Lipofectamine 2000, with cDNA encoding the full length open reading frame of hSIRPαV1, hSIRPαV2, hSIRPβ1, hSIRPβL, and hSIRPγ subcloned into the pCI-neo vector (Promega, Madison, Wis.). CHO-K1.hSIRPαV1, CHO-K1.hSIRPαV2, CHO-K1.hSIRPβ1, CHO-K1.hSIRPβL, and CHO-K1.hSIRPγ cells were seeded in culture medium (DMEM-F12 (Gibco) supplemented with 5% New Born Calf Serum (BioWest) and Pen/Strep (Gibco)) in 96-well flat-bottom tissue culture plates and incubated at 37° C., 5% CO₂ and 95% humidity for 24 hours. Subsequently, culture medium was removed and cells were incubated for 1 hour at 37° C., 5% CO₂ and 95% humidity with purified hSIRPα antibodies (used at 10 μg/mL and dilutions thereof). Next, cells were washed with PBS-T and incubated for 1 hour at 37° C., 5% CO₂ and 95% humidity with goat-anti-mouse IgG-HRP (Southern Biotech). Subsequently, cells were washed three times with PBS-T and immunoreactivity against hSIRPαV1, hSIRPαV2, hSIRPβ1, hSIRPβL, and hSIRPγ was visualized with TMB Stabilized Chromogen (Invitrogen). Reactions were stopped with 0.5 M H₂SO₄ and absorbances were read at 450 and 610 nm.
The KWAR23 antibody cross-reacts with all members of the SIRP receptor family tested: it binds to hSIRPαV1, hSIRPαV2, hSIRPβ1, hSIRPβL, and hSIRPγ.

The target in assay [2] is T2, hSIRPα expressed on primary human cells (human, UniProt P78324 31-504).
T2 construct: whole, on cells; also called hSIRPα on primary human CD14+ monocytes; on primary human granulocytes
In words: flow cytometry, primary CD14+ enriched monocytes, donor 1. On the procedure: (§1) Next, the binding of hSIRPα.50A to hSIRPα expressed on primary human CD14⁺ monocytes was investigated. In addition, the ability of hSIRPα.50A to block the interaction between hSIRPα and recombinant hCD47/Fc-protein was assessed. For this purpose, CD14+ monocytes were isolated from Ficoll-purified human peripheral blood mononuclear cells (PBMCs) using RosetteSep human monocyte enrichment cocktail (Stemcell). The percentage of monocytes present after the enrichment was determined by flow cytometry on the FACSVerse (BD Biosciences) based on CD14 staining using an APC-Cy7-conjugated mouse-anti-human CD14 detection antibody (BD Biosciences). […] After this labeling procedure, cells were washed two times, resuspended in PBS/1% BSA containing 0.1 μg/mL DAPI (BioLegend), and analysed by flow cytometry on the FACSVerse (BD Biosciences). Data were processed and analysed with FlowJo V10 software (FlowJo, LLC).
To assess the blocking ability of hSIRPα.50A, CD14+ enriched monocytes cells were seeded in 96-well round bottomed tissue culture plates and incubated for 45 minutes with FcR Blocking Reagent (Miltenyi Biotec) and hSIRPα.50A antibody (200 μg/mL and dilutions thereof) in PBS/1% BSA at 4° C. […] After this labeling procedure, cells were washed two times, resuspended in PBS/1% BSA containing 0.1 μg/mL DAPI (BioLegend), and analysed by flow cytometry on the FACSVerse (BD Biosciences). […]

Assay [3] has as its target T2, hSIRPα expressed on primary human cells. As to the kind of experiment: flow cytometry on CD14+ enriched monocytes, human donor 1; blocked ligand: DyLight 488-labeled recombinant hCD47/Fc. Here is the method: To assess the blocking ability of hSIRPα.40A, CD14+ enriched monocytes cells were seeded in 96-well round bottomed tissue culture plates and incubated for 45 minutes with FcR Blocking Reagent (Miltenyi Biotec) and hSIRPα.40A antibody (20 μg/mL and dilutions thereof) in PBS/1% BSA at 4° C. […] After this labeling procedure, cells were washed two times, resuspended in PBS/1% BSA containing 0.1 μg/mL DAPI (BioLegend), and analysed by flow cytometry on the FACSVerse (BD Biosciences). Data were processed and analysed with FlowJo V10 software (FlowJo, LLC). […] IC50 values represent the concentration at which half of the inhibition is observed.

For assay [4] the target is unchanged. In words: flow cytometry on CD14+ enriched monocytes, human donor 1, AF647 goat-anti-mouse IgG. Here is the method: as §1, with “hSIRPα.40A” for “hSIRPα.50A”
To assess the blocking ability of hSIRPα.40A, CD14+ enriched monocytes cells were seeded in 96-well round bottomed tissue culture plates and incubated for 45 minutes with FcR Blocking Reagent (Miltenyi Biotec) and hSIRPα.40A antibody (20 μg/mL and dilutions thereof) in PBS/1% BSA at 4° C. […] After this labeling procedure, cells were washed two times, resuspended in PBS/1% BSA containing 0.1 μg/mL DAPI (BioLegend), and analysed by flow cytometry on the FACSVerse (BD Biosciences). […]

T2 sequence (P78324 31-504): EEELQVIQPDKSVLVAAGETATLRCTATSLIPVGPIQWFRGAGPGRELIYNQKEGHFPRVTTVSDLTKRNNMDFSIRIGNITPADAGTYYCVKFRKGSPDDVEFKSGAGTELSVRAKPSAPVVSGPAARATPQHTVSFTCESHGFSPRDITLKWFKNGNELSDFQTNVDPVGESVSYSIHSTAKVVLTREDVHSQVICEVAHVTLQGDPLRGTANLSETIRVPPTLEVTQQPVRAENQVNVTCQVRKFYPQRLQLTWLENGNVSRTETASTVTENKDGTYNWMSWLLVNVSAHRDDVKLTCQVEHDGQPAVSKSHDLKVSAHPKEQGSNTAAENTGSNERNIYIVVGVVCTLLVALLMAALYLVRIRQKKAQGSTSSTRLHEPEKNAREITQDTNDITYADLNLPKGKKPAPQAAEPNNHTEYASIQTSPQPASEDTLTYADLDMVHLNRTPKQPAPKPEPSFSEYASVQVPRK
T1 sequence (O00241 30-398 limits assumed): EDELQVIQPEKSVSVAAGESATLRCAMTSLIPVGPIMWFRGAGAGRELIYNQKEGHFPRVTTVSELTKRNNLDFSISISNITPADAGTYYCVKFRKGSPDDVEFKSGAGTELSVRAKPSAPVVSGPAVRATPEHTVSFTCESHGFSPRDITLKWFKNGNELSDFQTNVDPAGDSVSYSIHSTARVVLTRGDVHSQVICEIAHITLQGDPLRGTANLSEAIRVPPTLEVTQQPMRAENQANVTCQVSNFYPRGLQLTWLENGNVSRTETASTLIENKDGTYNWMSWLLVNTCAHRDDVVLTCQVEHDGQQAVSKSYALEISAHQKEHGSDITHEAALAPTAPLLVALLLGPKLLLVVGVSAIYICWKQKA

B1: KWAR23 (antibody, V domains shown)
VH: EVQLQQSGAELVKPGASVKLSCTASGFNIKDYYIHWVQQRTEQGLEWIGRIDPEDGETKYAPKFQDKATITADTSSNTAYLHLSSLTSEDTAVYYCARWGAYWGQGTLVTVSS
VL: QIVLTQSPAIMSASPGEKVTLTCSASSSVSSSYLYWYQQKPGSSPKLWIYSTSNLASGVPARFSGSGSGTSYSLTISSMEAEDAASYFCHQWSSYPRTFGAGTKLELK
Take B1: it took 0.14 nM to reach a half-maximal effect in assay [1] (EC50).

B2: hSIRPα.50A (antibody, V domains shown)
VH: QVQLQQSGPELVKPGASVRISCKASGFTFTNYYIHWVKQRPGQGLEWIGWIYPGNVNTKYNEKFKAKATLTADKSSTTAYMQLSSLASEDSAVYFCARPTIIATDFDVWGAGTTVTVSS
VL: DIVMTQSHKFMSTSVGDRVNITCKASQGVGTAVGWYQQKPGQSPRLLIYWASTRHTGVPDRFTGSGSGTDFSLAISNVQSEDLADYFCQQYSTYPFTFGGGTNLEIK
notes: light chain constant domain not tied; also called mouse hSIRPα.50A; hSIRPα.50A.mIgG1
In assay [2], B2 came in with an EC50 of 7.38 nM.

B3: hSIRPα.40A (antibody, mouse IgG1, kappa, V domains shown)
VH: EVQFQQSGTVLARPGTSVKMSCKASGSTFTSYWMHWVKQGPGQGLQWIGAIYPVNNDTTYNQKFKGKAELTVVTSTSTAYMEVSSLTNEDSAVYYCTRSFYYSLDAAWFVYWGQGTLVTVSA
VL: DIQMTQSPSSLSASLGERVSLTCRASQDIGSRLNWLQQEPDGTIKRLIYATSSLDSGVPKRFSGSRSGSDYSLTISGLESEDFVDYYCLQYASSPFTFGGGTKLEINR
notes: mouse antibody, full chains without signal peptide; also called mouse hSIRPα.40A
For the molecule B3, the “IC50 (read off the curve)” value in assay [3] is ~0.4 nM. For the same molecule, the “EC50 (read off the curve)” value in assay [4] is ~1 nM.
